These results are taken from IntAct's records for PubMed 23104059.

B1: Vesicle-associated membrane protein 7 (Mus musculus), P70280 (parent)
chain: MAILFAVVARGTTILAKHAWCGGNFLEVTEQILAKIPSENNKLTYSHGNYLFHYICQDRIVYLCITDDDFERSRAFSFLNEVKKRFQTTYGSRAQTALPYAMNSEFSSVLAAQLKHHSENKSLDKVMETQAQVDELKGIMVRNIDLVAQRGERLELLIDKTENLVDSSVTFKTTSRNLARAMCMKNIKLTIIIIIVSIVFIYIIVSLLCGGFTWPNCVKK

Variants of B1 are the subject of this assay. The settings on record: with anr27_human ANKRD27, Q96NW4.
anr27_human ANKRD27, Q96NW4, sequence (Q96NW4 whole entry): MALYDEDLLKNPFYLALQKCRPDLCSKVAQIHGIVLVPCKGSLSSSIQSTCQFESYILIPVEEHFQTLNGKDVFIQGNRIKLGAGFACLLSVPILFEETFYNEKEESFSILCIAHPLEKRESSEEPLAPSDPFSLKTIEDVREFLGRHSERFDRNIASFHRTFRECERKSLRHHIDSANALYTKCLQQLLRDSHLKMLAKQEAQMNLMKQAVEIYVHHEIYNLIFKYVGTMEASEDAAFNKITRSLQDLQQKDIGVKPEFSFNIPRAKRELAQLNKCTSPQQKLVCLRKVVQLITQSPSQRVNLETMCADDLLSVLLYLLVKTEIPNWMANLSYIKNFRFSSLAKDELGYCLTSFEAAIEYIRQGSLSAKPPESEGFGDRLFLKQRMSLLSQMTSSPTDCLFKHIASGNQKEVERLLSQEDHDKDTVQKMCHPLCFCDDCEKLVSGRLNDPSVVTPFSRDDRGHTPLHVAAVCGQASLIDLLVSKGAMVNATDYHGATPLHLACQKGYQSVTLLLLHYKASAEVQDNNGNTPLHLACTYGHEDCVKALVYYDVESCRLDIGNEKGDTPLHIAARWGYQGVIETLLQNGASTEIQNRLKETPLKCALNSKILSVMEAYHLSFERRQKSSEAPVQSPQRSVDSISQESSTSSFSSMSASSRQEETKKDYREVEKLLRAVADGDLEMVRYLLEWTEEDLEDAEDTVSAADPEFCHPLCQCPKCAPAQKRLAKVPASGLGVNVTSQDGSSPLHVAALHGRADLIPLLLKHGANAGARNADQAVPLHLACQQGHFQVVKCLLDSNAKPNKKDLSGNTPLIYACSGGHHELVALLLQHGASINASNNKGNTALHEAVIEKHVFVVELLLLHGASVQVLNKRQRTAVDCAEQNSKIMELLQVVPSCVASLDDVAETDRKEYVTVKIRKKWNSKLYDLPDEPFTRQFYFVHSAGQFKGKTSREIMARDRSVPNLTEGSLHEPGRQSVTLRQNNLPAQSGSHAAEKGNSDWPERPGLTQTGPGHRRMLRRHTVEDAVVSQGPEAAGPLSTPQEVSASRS
As for MAILFAVVARGTTILAKHAWCGGNFLEVTEQILAKIPSENNKLTYSHGNYLFHYICQDRIVYLCITDDAFFRDRAFSFLNEVKKRFQTTYGSRAQTALPYAMNSEFSSVLAAQLKHHSENKSLDKVMETQAQVDELKGIMVRNIDLVAQRGERLELLIDKTENLVDSSVTFKTTSRNLARAMCMKNIKLTIIIIIVSIVFIYIIVSLLCGGFTWPNCVKK [D69A;E71F;S73D], the “effect of a mutation on the interaction” value is recorded as “disrupting interaction strength”.

Consider MAILFAVVARGTTILAKHAWCGGNFLEVTEQILAKIPSENNKLTYSHGNYLFHYICQDRIVYLCITDDDFEASRAFSFLNEVKKRFQTTYGSRAQTALPYAMNSEFSSVLAAQLKHHSENKSLDKVMETQAQVDELKGIMVRNIDLVAQRGERLELLIDKTENLVDSSVTFKTTSRNLARAMCMKNIKLTIIIIIVSIVFIYIIVSLLCGGFTWPNCVKK [R72A], for which the “effect of a mutation on the interaction” value was “disrupting interaction strength”.
